In article PMC3637229, “Differential Translation of Dazap1 Transcripts during Spermatogenesis”:

T1: His-DAZL (Mus musculus, UniProt Q64368 1-298)
T1 sequence: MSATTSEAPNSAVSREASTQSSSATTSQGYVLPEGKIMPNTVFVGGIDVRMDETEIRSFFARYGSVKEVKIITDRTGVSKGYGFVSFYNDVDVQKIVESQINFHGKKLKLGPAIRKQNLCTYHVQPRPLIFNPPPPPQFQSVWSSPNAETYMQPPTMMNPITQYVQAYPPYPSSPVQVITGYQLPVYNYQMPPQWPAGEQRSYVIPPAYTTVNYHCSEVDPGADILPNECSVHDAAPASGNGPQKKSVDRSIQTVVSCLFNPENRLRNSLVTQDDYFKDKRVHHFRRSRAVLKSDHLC

B1: Dazap1 3'UTR C region (ssRNA)
RNA: AGGGUUUAAAAAACGCCUUCAGCUUUAAUUCAGAAUUUCAGGUUUCUUUUUCUUCUUCCUUUUUUUUCCUUUUUUUGAGAUUAUUUUCUUGAGCCUUUUGUUUUAUGGUAUAUUGUAAACUUUUAUGUUAAAGAAAAAAUAUACAUUUACAAAUUGUGAGAUUUUUAAGAGAAAUUUUCUACAAUGUAUACUGGCUUAUUUUUUAAUUUAAAGCAGGGUUCGGGUG

How the values were obtained:
[1] = target: T1, His-DAZL; experiment: competition; cold C_40 1, 5, 10 ng vs labeled CU_40; EMSA: 1 ug DAZL in 10 ul, 20 mM Tris pH 7.4, 2.5 mM MgCl2, 60 mM KCl, 1 mM DTT, 5% glycerol, RT, then 5 mg/ml heparin + 0.5 mg/ml yeast tRNA; pull-down: 20 mM Tris-HCl pH 7.4, 2.5 mM MgCl2, 120 mM KCl, 1 mM DTT, 5% glycerol, RT, 5 mg/ml heparin; conditions: protein: recombinant; tags: His (pET-28a)
[2] = target: T1, His-DAZL; experiment: EMSA; heparin, yeast tRNA; EMSA: 1 ug DAZL in 10 ul, 20 mM Tris pH 7.4, 2.5 mM MgCl2, 60 mM KCl, 1 mM DTT, 5% glycerol, RT, then 5 mg/ml heparin + 0.5 mg/ml yeast tRNA; pull-down: 20 mM Tris-HCl pH 7.4, 2.5 mM MgCl2, 120 mM KCl, 1 mM DTT, 5% glycerol, RT, 5 mg/ml heparin; conditions: protein: recombinant; tags: His (pET-28a); label: 32P (gel shift)

Row | Binder | binding result [1] | binding result [2]
1 | AGGGUUUAAAAAACGCCUUCAGCUUUAAUUCAGAAUUUCAGGU (ssRNA) [C_40] | no binding | –
2 | B1 | – | binds
3 | AGGUUUCUUUUUCUUCUUCCUUUUUUUUCCUUUUUUUGAG (ssRNA) [CU_40] | – | binds
